The target of this assay is human CX3CR1 (human) (UniProt P49238).
Chain of human CX3CR1 (human) (P49238 whole entry): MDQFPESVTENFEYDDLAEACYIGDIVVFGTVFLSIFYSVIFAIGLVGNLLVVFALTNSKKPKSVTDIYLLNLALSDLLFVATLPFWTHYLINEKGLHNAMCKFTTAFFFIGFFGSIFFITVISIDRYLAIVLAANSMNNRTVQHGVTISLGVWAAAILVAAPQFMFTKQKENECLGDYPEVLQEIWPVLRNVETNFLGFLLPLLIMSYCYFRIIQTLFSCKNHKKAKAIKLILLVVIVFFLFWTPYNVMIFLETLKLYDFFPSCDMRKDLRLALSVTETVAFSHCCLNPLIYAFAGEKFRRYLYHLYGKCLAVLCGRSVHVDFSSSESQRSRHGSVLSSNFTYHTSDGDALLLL

B1: mouse fractalkine (ligand)
chain: QHLGMTKCEIMCDKMTSRIPVALLIRYQLNQESCGKRAIVLETTQHRRFCADPKEKWVQDAMKHLDHQAAALTKNGGKFEKRVDNVTPGITLATRGLSPSALTKPESATLEDLALELTTISQEARGTMGTSQEPPAAVTGSSLSTSEAQDAGLTAKPQSIGSFEAADISTTVWPSPAVYQSGSSSWAEEKATESPSTTAPSPQVSTTSPSTPEENVGSEGQPPWVQGQDLSPEKSLGSEEINPVHTDNFQERGPGNTVHPSVAPISSEETPSPELVASGSQAPKIEEPIHATADPQKLSVLITPVPDTQAATRRQAVGLLAFLGLLFCLGVAMFAYQSLQGCPRKMAGEMVEGLRYVPRSCGSNSYVLVPV
Turning to B1, the EC50 in the calcium flux assay worked out at 4.8 nM.

Values taken from paper PMC6973309.
